Our source for the Kd values is article PMC3094505.

Read-outs that look alike come from different tables or passages of the source.

The target in assay [1] is Fluoresceinated Nav1.2IQp, peptide of residues 1901-1927 of the Nav1.2 alpha-subunit. Nature of the assay: fluorescence polarisation. On the technique in general: Polarisation of emitted light reports the rotation of a fluorescent probe.
Assay [2] has the same target. Nature of the assay: fluorescence polarisation. The source holds these as a separate data set.

The Kd is the concentration at which binding is half-saturated.

With “Paramecium calmodulin N-domain (residues 1-80) (from UniProt P07463 2-81) (domain or fragment)”, the Kd in assay [1] is 70.8 µM; in assay [2], 1.64 µM.
